# Test system: A431 cells
# Test: Adhesion of A431 cells to the substrate, cells removed when the culture dish was shaken (Example 2)
# Type: cell-based
# Conditions: 1 pmol/ml, 96-well culture dish
# Method: FIG. 2 is a graph showing the results of Example 2 of the present application. The numerical value of the vertical axis indicates the number of cells removed from the bottom surface when a culture dish was shaken.
# A portion in the entire-length F9 (F9(47-471)), which has an activity of inducing spread of cells on a substrate, was determined using an ability to adhere to the substrate as an indicator. […] Thereafter, an F9 portion having an action to inhibit the aforementioned inhibitory action was examined under conditions in which a culture was performed at 37° C. for 24 hours and the culture dish was then shaken on a shaker. It is to be noted that F9(47-191) is a peptide consisting of amino acids at positions 47 to 191 in the amino acid sequence shown in SEQ ID NO: 8, and that F9(192-202) is a peptide consisting of amino acids at positions 192 to 202 in the amino acid sequence shown in SEQ ID NO: 8. […] Each of the numerical values (on the vertical axis) in the graph of FIG. 2 is indicated as a mean±SD (**: P<0.01). In addition, in FIG. 2, the term “47-191” indicates the conditions in which F9(47-191) was added, and the terms “47-471,” “192-236,” “192-216,” and “192-202” indicate the results obtained in the case of adding F9(47-471), F9(192-236), F9(192-216), and F9(192-202), respectively.
molecule,measurement,value
"F9(47-191): peptide consisting of amino acids at positions 47 to 191 of SEQ ID NO: 8 (mouse F9) (protein, listed as Mus musculus) YNSGKLEEFVRGNLERECIEERCSFEEAREVFENTEKTTEFWKQYVDGDQCESNPCLNGGICKDDISSYECWCQVGFEGRNCELDATCNIKNGRCKQFCKNSPDNKVICSCTEGYQLAEDQKSCEPTVPFPCGRASISYSSKKIT",action on adhesion between the cells and the substrate,action to inhibit adhesion between the cells and the substrate

# Source: US9738884B2, “Therapeutic agent for epithelial and endothelial injury” (NIHON UNIVERSITY, priority 2012, dated 2017)
